assay: yeast display, Sf9 membrane polyspecificity reagent, FACS + sequencing; frameworks hold sequencing errors
Summary of the method: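 In a synthetic yeast display library (Saccharomyces cerevisiae BJ5465), nanobody expression was induced with galactose for 36–48 hours. FACS gates were set low and high (top ~1%) using anti-HA fluorescence for expression and streptavidin fluorescence for binding of the Sf9 membrane reagent. Each polyreactivity label is drawn from the gate of origin.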

Sequence	polyreactivity (PSR sort gate)
QVQLVESGGGLVQAGGSLRLSCAASGRTFIVYPMGWYRQAPGKERELVAAISKRGGSTYYADSVKGRFTISRDNAKNPVYLQMNRLKPDDTAVYYCNAALSVELGYAYWGQGTQVTVSS	high polyreactivity
QVQLVESGGGLVQAGGSLRLSCAASGRTFIYYAMGWYRPAPGKERELVAAITWTGGRTYYADSVKGRFTISRDNAKNTVYLQMNSLKPEDTAVYYWAASDRYGGRDYWGQGTQVTVSS	high polyreactivity
QVQLVESGGGLVQAGGSLRLSCAASGRTFIYYAMGWYRQAPGKERELVAGITYSVGSTYYADSVKGRFTISRDNEKNTVYLQMNSLKPEDTAVYFCAADATFESDWGQGTQVTVSS	low polyreactivity
QVQLVESGGGLVQAGGSLRLSCAASGRTFIYYAMGWYRQAPGKERELVAVITGGGSTNYADSVKGRFTISRDNAKNTVYLQMNSLKPEDTAVYYCNRDYDASHTSREPLVGYDYWGQGTQVTVSS	low polyreactivity
QVQLVESGGGLVQAGGSLRLSCAASGRTFIYYAMGWYRQAPRKERELVATIRGSSTRTYYADSVKGRFTISRDNAKNTVYLQMNSLKPEDTAVYYCAARGTSRKYYYWGQGTQVTVSA	high polyreactivity
QVQLVESGGGLVQAGGSLRLSCAASGRTFKHYAMGWYRQAPGKERELVAAITSGGSTYYADSVKGRFTISRDNAKNTVYLQMNSLKPEDTAVYYCNKESYFDTYRRYDSWGQGTQVTVSS	low polyreactivity
QVQLVESGGGLVQAGGSLRLSCAASGRTFKKKVMGWYRHAPGKERELFAAISNGGSTNYADSVKGRFTISRDNSKNTDYLQMNSLKPEDTAVYDCAAYITWGGYHTPNWGYDYWGQGTQVTVSS	low polyreactivity
QVQLVESGGGLVQAGGSLRLSCAASGRTFKKYAMGWYSQAPGKERELVAAITVSGGSTYYADSVKGRFTVSRDNAKNTVYLQMNSLKPEDTAVYYCAAGSYSRYLFSLYFDFDYWGQGNQVTVSS	low polyreactivity
QVQLVESGGGLVQAGGSLRLSCAASGRTFKLYAMGWYRQAPGKERELVAAISRSGGSTYYADSVKGRFTISRDNAKNTVYLQMNSLKPEDTAVYYCNRRQGYHGDYDYWGQGTQVTVSS	high polyreactivity
QVQLVESGGGLVQAGGSLRLSCAASGRTFKNYAMGWYRQSPGKERELVAVISRRGSSTYYADSVKGRFTISRDNAKNTVYLQMNSLKPEDTAVYYSAARLGVPYPYIAYDYWGQGTQVTVSS	high polyreactivity
QVQLVESGGGLVQAGGSLRLSCAASGRTFKPYAMGWYRQAPGKERELVAAISSGVSTHYADSVKGRFTISRDNAKNTVYLQMNSLKPEDTAVYYCAADYWVNYWFDYWGQGTQVTVSS	low polyreactivity
QVQLVESGGGLVQAGGSLRLSCAASGRTFKPYTMGWYRQAPGKERELVATISTGTTSTYYADSVKGRFTISRDNAKNTVYLQMNSLKPEDTAVYYCAADSDSPVTYQSEDALEYWGQGTQVTVSS	low polyreactivity
QVQLVESGGGLVQAGGSLRLSCAASGRTFKQYAMGWYSQAPGKERELVAAISRTGGRTYYADSVKGRFTISRDNAKNTVYLQMNSLKPEDTAVYFCNAVYYWYKGDYWGQGTQVTVSS	high polyreactivity
QVQLVESGGGLVQAGGSLRLSCAASGRTFKRNAKGWYRQAPGKERELVAAISGTGASTYYADSVKGRFTISRDNAKNTVYLQMNSLKPEDTAVYYCAKYRYISNPVYLGDYWGQGTQVTVSS	high polyreactivity
QVQLVESGGGLVQAGGSLRLSCAASGRTFKRNTMGWYRQAPGKERELVAAISGTGSTNYADSVKGRFTISRDNAKNTVYLQMNSLKPEDTAVYYCGADDFSTVEYDYWGQGTQVTVSS	low polyreactivity
QVQLVESGGGLVQAGGSLRLSCAASGRTFKSYAMGWYRQAPGKERELVAAITWSGGSTYYADSVKGRFTISRDNAKNTVYLQMNSLKPEDTAVYYCAADSVYYYWYGYDYWGQGTQVTVSS	low polyreactivity
QVQLVESGGGLVQAGGSLRLSCAASGRTFKWYAMGWYRQAPGKERELVASISWSGGGTYYADSVKGRFTISRDNAKNTVYLQMNSLKPEDTAVYECAAEYYNWGDYGYDYWGQGTQVTVSS	high polyreactivity
QVQLVESGGGLVQAGGSLRLSCAASGRTFKYNAMGWSRPAPGKERELVAAISWSGGRTYYADSVKGRFTISRDNAKNTVYLQMNSLKPEDTAVYYCAAGVFKKYRPSGRYYYWGHGTQVTVSS	high polyreactivity
QVQLVESGGGLVQAGGSLRLSCAASGRTFKYNAMGWYRQAPGKERELVAAISSDDSTNYADSVKGRFTISRDNAKNTVYLQMNSLKPEDTAVYYCAARYGYSKWPDRVQAYKHDYWGQGTQVTVSS	low polyreactivity
QVQLVESGGGLVQAGGSLRLSCAASGRTFKYNAMGWYRQAPGKERELVAAISSTGSTNYADSVKGRFTISRDNAKNTVYLQMNSLKPEDTAVYYCAASYYFVQWGWYYYWGQGTQVTVSS	low polyreactivity
QVQLVESGGGLVQAGGSLRLSCAASGRTFKYNAMGWYRQAPGKERELVATISGSGGRTYYADSVKGRFTISRDNAKNTVYLQMNSLKPEDTAVYYCNAPRVKWLDWGQGTQVTVSS	high polyreactivity
QVQLVESGGGLVQAGGSLRLSCAASGRTFKYNAMGWYRQAPGNERELVAAISRSGGSTYYADSVKGRFTISRDNAKNTVYLQMNSLKPEDTAVYYCNAEYLWIRHIAEDYWGQGTQVTVSS	low polyreactivity

Sequence	polyreactivity (PSR sort gate)
QVQLVESGGGLVQAGGSLRLSCAASGRTFKYYAMGWYRQAPGKERELVAAISSRGGSTYYADSVKGRFTISRDNAKNTVYLQMNSLKPEDTAVYYCAKGTYLSTSTVANDYWGQGTQVTVSS	high polyreactivity
QVQLVESGGGLVQAGGSLRLSCAASGRTFKYYAMGWYRQAPGKERELVATISYNGASTYYADSVKGRFTISRDNAKNTVYLQMNSLKPEDTAVYYCAAGYLWRGRLGYWGQGTQVTVSS	high polyreactivity
QVQLVESGGGLVQAGGSLRLSCAASGRTFKYYAMGWYSQAPGKERELVAAITRSGVSTSYADSVKGRFTISRDNAKNTVYLQMNSLKPEDTAVYYCNVYGYTYYTRGVGYWGQGTQVTVSS	high polyreactivity
QVQLVESGGGLVQAGGSLRLSCAASGRTFLDNAMGWYRQAPGNEWELVATICSSGGTRYYADSVKGSFTISRDNAKNTVYLPMHSQKPEDTAVYYCNALWWGRYYRPYVTPVLGRMEYWGQGTQVTVSS	low polyreactivity
QVQLVESGGGLVQAGGSLRLSCAASGRTFLFNGMGWYRQAPGKERELVASITRGGSTYADSVKGRFTISRDNAKNTVYLQMNSLKPEDTAVYYCAALTSRTYLWTTRPYDYWGQGTQVTVSS	high polyreactivity
QVQLVESGGGLVQAGGSLRLSCAASGRTFLGNAMGWYRQAPGKERELVAAIRYSGGRTYYADSVKGRFTISRDNANNTVYLQMNSLKPEDTAVYYCAAELDGSNYPLDYWGQGTKVTVSS	low polyreactivity
QVQLVESGGGLVQAGGSLRLSCAASGRTFLGYAMGWYRQAPGKERELVAAISWDGTSTYYADSVKGRFTISRDNAKNTVYLQMNSLKPEDTAVYDCAAQLTDYQSKTLSYDYWGQGTQVTVSS	low polyreactivity
QVQLVESGGGLVQAGGSLRLSCAASGRTFLGYAMGWYRQAPGKERELVAGITSGGRTYYADSVKGRFTNSRDNAKNTVYLQMNSLKPEDTAVYYCAADTHGYDPMDYWGQGTQVTVSS	high polyreactivity
QVQLVESGGGLVQAGGSLRLSCAASGRTFLHYAMGWYRQAPGKEREFVAAIRTSGTSTYYADSVKGRFTISRDNAKNTVYLQMNSLKPEDTAVYYCAVARGSGWYWRSDYWGQGTQVTVSS	high polyreactivity
QVQLVESGGGLVQAGGSLRLSCAASGRTFLINAMGWYRQAPGKERELVAGINRNGGTTYYADSVKGRFTISRDNAKNTVYLQMNSLKPEDTAVYYCAKRYPSWFNYWGQGTQVTVSS	high polyreactivity
QVQLVESGGGLVQAGGSLRLSCAASGRTFLIYAMGWYRQAPGKERELVAAITNAVDSTYYADSVKGRFTISRDNAKNTVYLQMNSLKPEDTAVYYCNADTVVEWYSPSREYDYWGQGTQVTVSS	low polyreactivity
QVQLVESGGGLVQAGGSLRLSCAASGRTFLPNDMGWYRQAPGKERELVAAITDSGGDTYYADSVKGRFTISRDNAKNTVYLQMNSLKPEDTAVYYCASDYYYYGSYYPVEYWGQGTQVTVSS	high polyreactivity
QVQLVESGGGLVQAGGSLRLSCAASGRTFLPNPMGWYRPAPGKERELVAVITSVGSTNYADSVKGRCTISRDNAKNTVYLQMNSLKPEDTAVYFCAALKPRTRRAGFNYWGQGTQVTVSS	low polyreactivity
QVQLVESGGGLVQAGGSLRLSCAASGRTFLPYAMGWYRQAPGKERELVAAIDSSGGSTYYADSVKGRFTISRDNAKNTVYLQMNSLKPEDTAVYYCAADLYSSSYLYDSWGQGTQVTVSS	low polyreactivity
QVQLVESGGGLVQAGGSLRLSCAASGRTFLPYAMGWYRQAPGKERELVAAIDSSGGSTYYADSVKGRFTISRDNAKNTVYLQMNSLKPEDTAVYYCAADLYSSYYLYDSWGQGTQVTVSS	low polyreactivity
QVQLVESGGGLVQAGGSLRLSCAASGRTFLRNAMGWYRQAPGKERELVAAITSSGGRTYYADSVKGRFTISRDNAKNTVYLQMNSLKPEDTAVYYCATDTGWPGRDYWGQGTQVTVSS	high polyreactivity
QVQLVESGGGLVQAGGSLRLSCAASGRTFLRNAMGWYRQAPGKERELVAAITSSGGRTYYADSVKGRFTISRDNAKNTVYLQMNSLKPEDTAVYYCAVDVTVREWFEYYYWGQGTQVTVSS	high polyreactivity
QVQLVESGGGLVQAGGSLRLSCAASGRTFLRNDMVWYRQAPGKERELVAAISYSGGRTYYAVSVKGRFTISRDNAKNTVYLQMNSLKPEDTAVYYCAADRFFKAIRPYDYWGQGTQVTVSS	high polyreactivity
QVQLVESGGGLVQAGGSLRLSCAASGRTFLRYARGWYRQAPGKERELVAAISWSGGRTYYADSVKGRFTISRDNAKNTVYLQMNSLKPEDTAVYYCNKVVLYGAHYYYWGQGTQVTVSS	high polyreactivity
QVQLVESGGGLVQAGGSLRLSCAASGRTFLSYAMGWYRQAPGKDRELVAAIRRGSSTYYADSVKGRFTISRDNAKNTVYLQMNSLKPEDTAVYYCAARGRYRIGPGRYGKRYDYWGQGTQVTVSS	high polyreactivity
QVQLVESGGGLVQAGGSLRLSCAASGRTFLVYAMGWYRQAPGKERELVAAISYSDGNTYYADSVKGRFTISRDHAKNTVYLQMNSLKPEDTAVYYCNAVTYGYPYDYWGQGTQVTVSS	low polyreactivity
